Data reported in US20250082608A1, “TREATMENT AND PREVENTION OF GLOMERULAR DISEASE” (Singapore Health Services PTE LTD., priority 2021, published 2025).
“Also recorded” adds a separate entry of the source.

Key:
[1] = system: Col4a3−/− mice; assay: Lifespan study in Col4a3−/− mice, anti-IL11 and ramipril alone or in combination, Example 3; type: in vivo, mouse; conditions: X203 20 mg/kg twice a week, ramipril 10 mg/kg 6 days/week, from 6 weeks of age; for mean percentage lifespan extension: over lifespan of untreated Col4a3−/− mice
Procedure: Col4a3^−/− (Col4a3^tm1Dec) mice were housed as described in Example 2.2. For lifespan studies, the mice were intraperitoneally administered either anti-IL11 (X203; twice a week, 20 mg/kg) or IgG isotype control (11 E10; twice a week, 20 mg/kg) alone or in combination with ramipril (10 mg/kg; 6 days/week) starting from 6 weeks of age, until death ensued.

[2] = system: Col4a3−/− mice; conditions: cited from earlier work
[3] = system: rheumatoid synovial cells; conditions: upon treatment; cited from earlier work
[4] = system: 129-Col4a3^tm1Dec/J mice; assay: Survival of mice homozygous for Col4a3^tm1Dec (mouse model of Alport syndrome), Example 1; type: in vivo; conditions: 20 mg/kg i.p. biweekly from 6 weeks of age until mortality
From the text: 129-Col4a3^tm1Dec/J mice were obtained from The Jackson Laboratory (Stock No:002908; COL4A3 KO). The mice comprise the Col4a3^tm1Dec mutation described e.g. in Cosgrove et al., Genes Dev. (1996) 10:2981-2992, which is hereby incorporated by reference in its entirety. 129-Col4a3^tm1Dec/J mice comprise a targeted mutation to Col4a3, resulting in progressive glomerulonephritis with microhematuria and proteinuria, and mice homozygous for the mutation typically die at about 8.5 weeks.
From 6 weeks of age, mice homozygous for the Col4a3^tm1Dec mutation were administered biweekly by intraperitoneal injection of 20 mg/kg of Enx203, or an isotype-matched control antibody, until mortality.

[5] = system: Col4a3−/− mice; assay: Treatment study in Col4a3−/− mice: body weight and kidney weight; type: in vivo, mouse
Procedure: (§1) Col4a3^−/− (Col4a3^tm1Dec) mice were purchased from The Jackson Laboratory (https://www.jax.org/strain/002908). Mice were housed in temperatures of 21-24° C. with 40-70% humidity on a 12 h light/12 h dark cycle and provided with food and water ad libitum. For treatment study, Col4a3^−/− were administered 20 mg/kg of anti-IL11 (X203) or IgG isotype control (11 E10) by intraperitoneal (IP) injection starting from 6 weeks of age twice a week for 2.5 weeks; wild-type littermates were used as controls. Mice were sacrificed for blood and kidney collection when they were 8.5-week-old. For lifespan study, IgG/X203 was administered to 6-week-old Col4a3^−/− (2×/week) until death ensued.
Over recent years, antibodies that inhibit IL11 signaling in mouse and human cells have been developed^15,17. One of these neutralizing IL11 antibodies (X203) or an IgG control were administered to 6-week-old Col4a3^−/− mice, the time point when initiation of ramipril has proven ineffective^6, and examined renal pathologies at 8.5 weeks of age, as compared to age-matched wild-type controls (FIG. 3A).

[6] = system: Col4a3−/− mice; assay: Treatment study in Col4a3−/− mice: renal fibrosis (total renal collagen content, Masson's Trichrome staining); type: in vivo, mouse; conditions: 20 mg/kg 2x/week for 2.5 weeks from 6 weeks of age; vs IgG
Procedure: as §1
Kidney tissues were fixed for 48 hours at RT in 10% neutral-buffered formalin (NBF), dehydrated, embedded in paraffin, and sectioned at 7 μm. Transverse kidney sections were then stained with Masson's Trichrome according to standard protocol. Images of the sections were captured by light microscopy and blue-stained fibrotic areas were semi-quantitatively determined with Image-J software (color deconvolution-Masson Trichrome) from the whole kidney area (100×field, n=4 kidneys/group). Treatment and genotypes were not disclosed to investigators performing the histology and generating semi-quantitative readouts.

[7] = system: Col4a3−/− mice; assay: Treatment study in Col4a3−/− mice: renal mRNA expression by qPCR; type: in vivo, mouse
Procedure: as §1
Total RNA was extracted from snap-frozen kidney tissues using Trizol (Invitrogen) followed by RNeasy column (Qiagen) purification. cDNAs were synthesized with iScript™ cDNA synthesis kit (Bio-Rad) according to manufacturer's instructions. Gene expression analysis was performed on duplicate samples with either TaqMan (Applied Biosystems) or fast SYBR green (Qiagen) technology using StepOnePlus™ (Applied Biosystem) over 40 cycles. Expression data were normalized to GAPDH mRNA expression and fold change was calculated using […]. The sequences of specific TaqMan probes and SYBR green primers are available upon request.

[8] = system: Col4a3−/− mice; assay: Treatment study in Col4a3−/− mice: Western blot of kidney protein extracts; type: in vivo, mouse; conditions: vs IgG
Procedure: as §1
Western blot was carried out on total protein extracts from mouse kidney tissues. Kidneys were lysed in radioimmunoprecipitation assay (RIPA) buffer containing protease and phosphatase inhibitors (Thermo Scientifics), followed by centrifugation to clear the lysate. Protein concentrations were determined by Bradford assay (Bio-Rad). Protein lysates were separated by SDS-PAGE, transferred to PVDF membrane, and subjected to immunoblot analysis for various antibodies as outlined in the main text, figures, or and/or figure legends. Proteins were visualized using the ECL detection system (Pierce) with the appropriate secondary antibodies: anti-rabbit HRP or antimouse HRP.

[9] = system: Col4a3−/− mice; assay: Treatment study in Col4a3−/− mice: Wilms' Tumor 1 immunohistochemistry (podocytes); type: in vivo, mouse; conditions: blinded quantification; vs IgG, P=0.0002
Procedure: as §1
Kidneys were fixed in 10% neutral-buffered formalin (NBF), paraffinized, cut into 7 μm sections, incubated with primary antibodies overnight and visualized using an ImmPRESS HRP anti-rabbit IgG polymer detection kit (MP-7401, Vector Laboratories) with ImmPACT DAB Peroxidase Substrate (SK-4105, Vector Laboratories). Quantification of WT^+ve cells were performed in a blinded fashion from 4 images (200×field)/kidney (n=3-4 kidneys/group).

[10] = system: Col4a3−/− mice; assay: Treatment study in Col4a3−/− mice: renal function (BUN, serum creatinine, urinary albumin:creatinine) by colorimetric assays/ELISA; type: in vivo, mouse; conditions: study end, 8.5 weeks of age; X203 from week 6
Procedure: as §1
The levels of blood urea nitrogen (BUN) and creatinine in mouse serum were measured using Urea Assay Kit (ab83362, Abcam) and Creatinine Assay Kit (ab65340, Abcam), respectively. Urine albumin and creatinine levels were measured using Mouse Albumin ELISA kit (ab108792, Abcam) and Creatinine Assay Kit (ab204537, Abcam), respectively. All ELISA and colorimetric assays were performed according to the manufacturer's protocol.

[11] = system: Col4a3−/− mice; assay: Lifespan study in Col4a3−/− mice, Example 2; type: in vivo, mouse
Procedure: as §1
Statistical analyses were performed using GraphPad Prism software (version 8). Statistical significance between control and experimental groups were analysed by twosided Student's t tests or by one-way ANOVA as indicated in the figure legends. P values were corrected for multiple testing according to Tukey when several conditions were compared to each other within one experiment. Comparison analysis for two parameters from two different groups were performed by two-way ANOVA. Survival curves were analyzed by Gehan-Breslow-Wilcoxon test. The criterion for statistical significance was P<0.05.

[12] = molecular target: T1, IL-11Rα (Homo sapiens, UniProt Q14626); conditions: low affinity; cited from earlier work
T1 sequence (Q14626 23-422): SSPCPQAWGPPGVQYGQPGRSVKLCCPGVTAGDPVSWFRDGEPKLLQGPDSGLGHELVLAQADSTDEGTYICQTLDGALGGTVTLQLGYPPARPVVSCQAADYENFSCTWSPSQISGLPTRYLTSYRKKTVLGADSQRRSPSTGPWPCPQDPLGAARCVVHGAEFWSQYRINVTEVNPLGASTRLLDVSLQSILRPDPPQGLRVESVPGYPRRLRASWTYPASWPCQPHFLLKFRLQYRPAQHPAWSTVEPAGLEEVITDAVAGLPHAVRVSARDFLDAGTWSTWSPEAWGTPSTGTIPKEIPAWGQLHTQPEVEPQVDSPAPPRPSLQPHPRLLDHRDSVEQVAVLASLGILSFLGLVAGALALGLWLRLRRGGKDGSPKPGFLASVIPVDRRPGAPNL

Molecule: CCOC(=O)[C@H](CCc1ccccc1)N[C@@H](C)C(=O)N1[C@H](C(=O)O)C[C@@H]2CCC[C@@H]21 [ramipril]
- improvement of median survival over untreated mice [1]: 14 days
- mean percentage lifespan extension [1]: 25.40%
- beneficial effect of delayed treatment ([2]; treatment delayed until after proteinuria was established (6-week-old mice)): no beneficial effect; also recorded: ineffective
- kidney dysfunction and lifespan ([2]; treatment of 4-week-old mice, prior to onset of proteinuria and tubulointerstitial fibrosis): attenuated kidney dysfunction and prolonged lifespan

Molecule: interferon-gamma (IFNγ): interferon-gamma
- expression of IL-11 [3]: reduction in the expression of IL-11

Molecule: COc1ccc2c(c1)c(CC(=O)O)c(C)n2C(=O)c1ccc(Cl)cc1 [indomethacin, reference compound]
- expression of IL-11 [3]: reduction in the expression of IL-11

B1: Enx203: mouse anti-mouse IL-11 IgG, neutralizing; VH SEQ ID NO:22, VL SEQ ID NO:23 (antibody, V domains shown)
VH: EVQLQQSGPELVKPGASVKIPCKASGYTFTDYNMDWVKQSHGKSLEWIGDINPHNGGPIYNQKFTGKATLTVDKSSSTAYMELRSLTSEDTAVYYCARGELGHWYFDVWGTGTTVTVSS
VL: DIVLTQSPASLAVSLGQRATISCRASKSVSTSGYSYIHWYQQKPGQPPKLLIYLASNLDSGVPARFSGSGSGTDFTLNIHPVEEEDAATYYCQHSRDLPPTFGGGTKLEIK
- increase in survival relative to mice treated with isotype-matched control antibody [4]: up to 40%
- kidney mass (kidney weight) ([5]; 20 mg/kg 2x/week for 2.5 weeks from 6 weeks of age, vs IgG): preserved kidney mass
- total body weight loss as a percentage of starting body weight ([5]; 20 mg/kg i.p. 2x/week for 2.5 weeks from 6 weeks of age, end of study, IgG control 30%, P=0.0003): 17%
- kidney fibrosis by biochemical and histological assessments [6]: reduced severity of renal fibrosis; also recorded: significantly less kidney fibrosis
- renal levels of extracellular matrix genes (Col1a1, Col1a2, Col3a1, Fn), Acta2 and pro-fibrotic factors (Il11, Tgfb1) ([7]; mRNA, 20 mg/kg 2x/week for 2.5 weeks from 6 weeks of age, vs IgG): all reduced
- indicators of tubule damage (Kim1 and Ngal) ([7]; renal mRNA): restored by X203 administration towards the levels seen in wildtype mice
- Tnfα expression ([7]; renal mRNA, vs IgG): reduced Tnfα expression
- proinflammatory interleukins (Il6, Il1b) and CC chemokines (Ccl2, Ccl5) ([7]; renal mRNA, vs IgG): equally diminished
- ERK and STAT3 phosphorylation in kidneys ([8]; 20 mg/kg 2x/week for 2.5 weeks from 6 weeks of age): largely reduced; also recorded: largely diminished
- TGFβ upregulation in the kidneys ([8]; Western blot): significantly reduced the degree of TGFβ upregulation
- Caspase 3 activation ([8]; kidney Western blot (cleaved Caspase 3)): reduced
- alpha-smooth muscle actin (αSMA) and fibronectin protein ([8]; kidney, reduction seen on transcripts): confirmed at the protein level
- podocyte markers WT1 and Podocin by immunoblotting ([8]; kidney): restored towards normal; also recorded: Preservation of podocytes
- number of WT1-positive cells (podocytes) [9]: restored towards normal; also recorded: restoration of podocytes
- serum blood urea nitrogen (BUN) [10]: improved renal function; also recorded: markedly lowered
- serum creatinine (Cr) [10]: improved renal function; also recorded: markedly lowered
- urinary albumin:creatinine ratio (ACR) [10]: reduced albuminuria; also recorded: markedly lowered
- median lifespan ([11]; 20 mg/kg 2x/week from 6 weeks of age until death, IgG control 62.5 days, P=0.0015): 88.5 days
- extension of median life span ([11]; from 62.5 to 88.5 days, vs IgG): 41.6%
- improvement of median survival over untreated mice [1]: 28 days
- mean percentage lifespan extension [1]: 41.93%

B2: IL-11: pleiotropic cytokine, member of the IL-6 family; human sequence SEQ ID NO:1 (protein)
chain: PGPPAGSPRVSSDPRADLDSAVLLTRSLLADTRQLAAQMRDKFPADGDHSLDSLPTLAMSAGTLGSLQLPGVLTRLRVDLMSYLRHVQWLRRAGGPSLKTLEPELGALQARLERLLRRLQLLMSRLALPQAAPDQPVIPLGPPASAWGSIRAAHAILGGLHLTLDWAVRGLLLLKTRL
- Kd [12]: ~22 nM
